Common to all, as to assay: BLI
Details in all cases: both partners purified

The target of experiment [1] is His-tagged RBD (RBD-His) protein of SARS-CoV-2 (SARS-CoV-2, wild type (Wuhan-Hu-1 …, UniProt P0DTC2)).
The target is the same in experiment [2]. This is another data set of the same source.
Experiment [3] addresses Fc-tagged wild-type RBD (RBD-Fc) (SARS-CoV-2, UniProt P0DTC2).

B1: CoV2-14 (antibody, V domains shown)
VH: EVQLQQSGPGLVKPSQTLSLTCAISGDSVSSNSAAWNWIRQSPSRGLEWLGRTYYRSKWYNDYAVSVKSRITINPDTSKNQFSLQLNSVTPEDTAVYYCAREEQQLVHDYYYYGMDVWGQGTMVTVSS
VL: QAVVTQPASVSGSPGQSITISCTGTSSDIGAYNYISWYQQHPGKAPKLIIYEVSNRPSGISYRFSGSKSGNTASLTISGLQAEDEANYYCSSYAGSISFGGGTKVTVL
Turning to B1, in experiment [1], binding was put at a Kd of 1.18 nM, the koff was determined as 0.000895 s⁻¹ and the kon amounted to 761000 M⁻¹ s⁻¹.

B2: CoV2-14 (antibody, V domains shown)
VH: B1 VH
VL: B1 VL
As to B2, the other in experiment [2] was 2 fold. This molecule displayed an IC50 in experiment [3] of 10.6 nM.

B3: CoV2-06 (antibody, V domains shown)
VH: QVELQESGPGLVKPSGTLSLTCAVSGGSISSNNWWTWVRQPPGKGLEWIGEIHHSGGTNYNPSLKSRVTMSVDKSKNQFSLNLYSVTAADTAVYYCTRDRAGGTYSGFDFWGQGTLVTVSS
VL: QAVVTQPASVSGSPGQSITISCTGTSSDVGGYNYVSWYQQHPGKAPKLMIYDVSNRPSGVSNRFSGSKSGNTASLTISGLQAEDEADYYCSSYTSSSTVVFGGGTKVTVL
On to B3, for which, in experiment [1], the Kd amounted to 4.14 nM, the koff came out at 0.000695 s⁻¹ and the kon worked out at 168000 M⁻¹ s⁻¹.

B4: CoV2-06 (antibody, V domains shown)
VH: B3 VH
VL: B3 VL
In turn, B4 displayed an other in experiment [2] of 46 fold. Besides, the IC50 in experiment [3] came out at 39.8 nM.

For the origin of these results see paper PMC9499943 (Nature Communications, 2022).
